{
  "source": "patent US20160354395A1",
  "about": "“INFANT FORMULAS CONTAINING A 2-FUCOSYLATED OLIGOSACCHARIDE FOR TREATMENT OR PREVENTION OF INFLUENZA INFECTION” (NESTEC S.A., priority 2013, published 2016)",
  "origin": "cited, not measured here",
  "molecules": {"B1": {"name": "Lactoferrin: a protein of the transferrin family, present in milk; given in the diet at 25 g/kg (protein, UniProt P24627 20-708, looked up)", "Lactotransferrin": "APRKNVRWCTISQPEWFKCRRWQWRMKKLGAPSITCVRRAFALECIRAIAEKKADAVTLDGGMVFEAGRDPYKLRPVAAEIYGTKESPQTHYYAVAVVKKGSNFQLDQLQGRKSCHTGLGRSAGWIIPMGILRPYLSWTESLEPLQGAVAKFFSASCVPCIDRQAYPNLCQLCKGEGENQCACSSREPYFGYSGAFKCLQDGAGDVAFVKETTVFENLPEKADRDQYELLCLNNSRAPVDAFKECHLAQVPSHAVVARSVDGKEDLIWKLLSKAQEKFGKNKSRSFQLFGSPPGQRDLLFKDSALGFLRIPSKVDSALYLGSRYLTTLKNLRETAEEVKARYTRVVWCAVGPEEQKKCQQWSQQSGQNVTCATASTTDDCIVLVLKGEADALNLDGGYIYTAGKCGLVPVLAENRKSSKHSSLDCVLRPTEGYLAVAVVKKANEGLTWNSLKDKKSCHTAVDRTAGWNIPMGLIVNQTGSCAFDEFFSQSCAPGADPKSRLCALCAGDDQGLDKCVPNSKEKYYGYTGAFRCLAEDVGDVAFVKNDTVWENTNGESTADWAKNLNREDFRLLCLDGTRKPVTEAQSCHLAVAPNHAVVSRSDRAAHVKQVLLHQQALFGKNGKNCPDKFCLFKSETKNLLFNDNTECLAKLGGRPTYEEYLGTEYVTAIANLKKCSTSPLLEACAFLTR"}},
  "system": "influenza virus",
  "details": "mice",
  "data": [
    {"molecule": "B1", "values": [
      {"measurement": "number of infiltrated leukocytes recovered from bronchoalveolar lavage fluid", "setting": "day 6", "value": "significantly lower"},
      {"measurement": "lung consolidation score", "setting": "day 6 after infection, vs control mice given water", "value": "significantly lower"}
    ]}
  ]
}
